Measured values reported in patent publication US10774143 (LA JOLLA INSTITUTE FOR ALLERGY AND IMMUNOLOGY, dated 2020).
Each block holds one molecule with its values, some of them ahead of it.

Experiments:
[1] = target: SWAP-70-like adaptor of T cells (SLAT), endogenous mouse protein (mouse) (UniProt Q8C2K1); test: cell-based or functional assay
[2] = target: SWAP-70-like adaptor of T cells (SLAT), endogenous mouse protein (mouse) (UniProt Q8C2K1); test: co-IP of SLAT and IP3R1 from CD4+ T cells pre-incubated with TAT protein, densitometry against control TAT-HA
[3] = target: T1, Flag-tagged IP3R1-f2.1 (residues 346-490) (Homo sapiens (Human), UniProt Q14643 346-490); test: co-IP from Jurkat-TAg cells cotransfected with Flag-IP3R1-f2.1
T1 construct: not shown: Flag tag

Molecule: TAT-HA-2.1 Δ18 fusion protein (TAT-HA fused to IP3R1 residues 346-490 deleted of residues 400-417) (from UniProt Q14643 346-490)
anti-CD3/CD28-stimulated IFNγ production by CD4+ T cells (ELISA), reduction [1]: 15 to 20%
percent reduction of the SLAT-IP3R1 interaction [2]: 20%

binding result [3]: binds
B1: Myc-tagged SLAT putative EF-hand domain (other)
chain: MALRKELLKSIWYAFTALDVEKSGKVSKSQLKVLSHNLYTVLHIPHDPVALEEHFRDDDDGPVSSQGYMPYL
notes: not shown: Myc tag downstream of the insert (pEF-Myc-His A/C vector)
